The values below are quoted from earlier work in US7449311B2, “Method of producing macedocin by culturing Streptococcus macedonicus” (Vrije Universiteit Brussel, priority 2001, dated 2008).

Read-outs that look alike come from different tables or passages of the source.

Regarding “SA-FF22: lantibiotic isolated from pathogenic Streptococcus pyogenes FF22 (SEQ ID NO 2) (GKNGVFKTISHECHLNTWAFLATCCS; Streptococcus pyogenes)”, the loss of activity (at a pH of 7 (Tagg et al., 1978)) is 50% and the loss of activity (stored for 4 weeks at room temperature (Tagg et al., 1973)) is 75%.
